We go through 4 molecules from patent publication US20260234242A1 (HAINAN SIMCERE ZAIMING PHARMACEUTICAL, published 2026).

For test [1], the target named is T1, his-tagged human CDH6 extracellular region protein (hCDH6 ECD-his) (human, UniProt P55285 19-615).
T1 construct: also called Human CDH6-his; hCDH6-his; not shown: his tag
T1 sequence: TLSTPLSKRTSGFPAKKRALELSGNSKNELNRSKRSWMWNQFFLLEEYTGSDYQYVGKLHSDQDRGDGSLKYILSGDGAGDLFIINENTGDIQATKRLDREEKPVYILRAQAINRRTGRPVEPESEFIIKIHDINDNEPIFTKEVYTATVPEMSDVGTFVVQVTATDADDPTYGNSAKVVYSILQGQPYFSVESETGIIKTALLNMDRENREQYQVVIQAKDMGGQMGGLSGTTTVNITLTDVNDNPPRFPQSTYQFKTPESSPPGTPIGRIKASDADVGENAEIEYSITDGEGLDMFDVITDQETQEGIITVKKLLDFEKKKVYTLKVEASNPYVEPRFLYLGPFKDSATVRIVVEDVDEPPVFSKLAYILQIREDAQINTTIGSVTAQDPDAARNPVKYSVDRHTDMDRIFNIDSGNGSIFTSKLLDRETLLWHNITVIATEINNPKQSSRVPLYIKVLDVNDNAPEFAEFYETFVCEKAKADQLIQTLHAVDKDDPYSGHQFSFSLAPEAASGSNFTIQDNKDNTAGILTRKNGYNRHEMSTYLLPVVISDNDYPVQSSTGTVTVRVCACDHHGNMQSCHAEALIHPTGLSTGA
As to the kind of experiment: ELISA, coated antigen. (An ELISA detects its analyte on a solid surface through an enzyme-linked reagent.)

Test [2] has as its target T1, his-tagged human CDH6 extracellular …. As to the kind of experiment: SPR Biacore, antibody captured on Protein A. As to the method: The affinity of the antibody for the antigen was determined by a multi-cycle kinetic method using a BIAcore 8K instrument. In each cycle, the antibody to be tested was captured using a Protein A chip (purchased from GE, Cat. No. 29-1275-56), and then the antigen human CDH6 protein (hCDH6-his, conventionally synthesized) was injected. The association and dissociation processes of the antibody with the antigen protein were recorded, and finally, the chip was regenerated using Glycine pH 1.5, wherein the mobile phase was HBS-EP+ (10 mM HEPES, 150 mM NaCl, 3 mM EDTA, 0.05% surfactant P20, and 1 mM Ca), the flow rate was 30 μL/min, the association time was 240 s, the dissociation time was 300 s, the regeneration time was 30 s, the detection temperature was 25° C., and the antigen concentration was 31.25-1000 nM. The data were analyzed using Biacore 8K analysis software (version No. 2.0) based on the 1:1 binding model to fit the antibody-antigen binding kinetic parameters, including the association rate constant ka, the dissociation rate constant kd, and the equilibrium dissociation constant KD. The affinity values of the control antibody DS-H01L02 were undetectable. Antibodies not shown in the table had undetectable affinity values.
Four hCDH6-6 humanized antibodies with fewer back mutations were selected, and the affinity for human CDH6 protein was further confirmed using Biacore.
On the technique in general: In SPR one partner is held on a chip, and binding of the other changes the refractive index at the surface.

B1: hCDH6-1-H2L3 (antibody, V domains shown)
VH: EVQLVQSGAEVKKPGSSVKVSCKASGYTFTNYWMHWVRQAPGQGLEWMGDIDPSHSETHYTQKFKDRVTITVDKSTSTAYMELSSLRSEDTAVYYCARGDLGRFDYWGQGTTVTVSS
VL: DIQMTQSPSSLSASVGDRVTITCRASESVSIHGTHLMHWYQQKPGKPPKLLIYAASNLESGVPSRFSGSGSETDFTFTISSLQPEDIATYYCQQSFEDPWTFGGGTKVEIK
notes: Humanized
Turning to B1, in test [1], the EC50 (commonly the concentration giving half of the maximal effect) was determined as 0.029 nM and the “Max OD450” value was 2.61 OD450.

B2: hCDH6-6-H2L2 (antibody, V domains shown)
VH: EVQLVQSGAEVKKPGASVKVSCKASGYTFTDYYMAWVRQAPGQGLEWMGYIFPNSGGTDYSQKFKGRVTLTVDKSTSTVYMELSSLRSEDTAVYYCARELGADYGDYYAMDHWGQGTTVTVSS
VL: DIQMTQSPSSLSASVGDRVTITCRASENIDSYLAWYQQKPGKSPKLLVYSATLLADGVPSRFSGSGSGTDYTLTISSLQPEDFATYYCQHYYRTPPTFGQGTKLEIK
notes: Humanized
Consider B2, for which, in test [2], the affinity, expressed as Kd, was 89.8 nM; the dissociation rate constant (koff) (usually a measure of how fast the partners let go of each other) amounted to 0.00468 s⁻¹; the kon (usually a measure of how fast the partners come together) was 52100 M⁻¹ s⁻¹.

B3: CHI-CDH6-6 (antibody, human IgG1, kappa, V domains shown)
VH: EVQLQQSGPELVKPGDSVKMSCKASGYTFTDYYMAWVRQSHRKSLEWIGYIFPNSGGTDYSQKFKGKATLTVDKSSSTVYMELHSLTSEDSAVYYCARELGADYGDYYAMDHWGQGTSVSVSS
VL: DIQMTQSPASLSASVGETVTITCRASENIDSYLAWYQQKQGKSPQLLVYSATLLADGVPSRFSGSGSGTQYSLKINSLKSEDVARYYCQHYYRTPPTFGSGTKLEIKR
notes: also called CHI-hCDH6-6; chimeric antibody of murine CDH6-6
Take B3: in test [2], binding was put at a Kd of 87.1 nM, the koff was 0.00424 s⁻¹ and the on-rate constant (kon) is 48700 M⁻¹ s⁻¹.

B4: CHI-CDH6-1 (antibody, human IgG1, kappa, V domains shown)
VH: QVQLQQPGAELVRPGSSVKLSCKASGYTFTNYWMHWVKQRPIEGLEWIGDIDPSHSETHYTQKFKDKATLTVDKSSSTAYMQLSSLTSEDSAVYYCARGDLGRFDYWGQGTTLTVSS
VL: DIVLTQSPASLAVSLGQRATISCRASESVSIHGTHLMHWYQQKSGQPPKLLIYAASNLESGVPARFSGSGSETDFTFNIHPVEEEDAATYFCQQSFEDPWTFGGGTKLEIKR
notes: also called CHI-hCDH6-1; CH1-CDH6-1
As for B4, in test [1], a half-maximal response (EC50) required 0.032 nM and the “Max OD450” value is 2.59 OD450.
